From patent US20190218253A1 (NATIONAL UNIVERSITY OF SINGAPORE, published 2019)
Each block holds one binder with its values, some of them ahead of it. Square brackets hold non-standard residues; d marks the D form.

Assays:
[1] = biological target: T1, retinoblastoma binding protein 4 (RBBp4) (UniProt Q09028 1-425); assay: fluorescence polarization competition: peptide titrated into RBBp4 + C-terminal FITC-labelled WT SALL4 peptide
T1 construct: Bought protein; Crystal structure numbering runs at least over residues 33-404; also called RbAp48
Description: (§1) Reactions were incubated at room temperature before the plate was read with an Envision instrument (Perkin Elmer). IC₅₀ values of peptides were determined using Prism (GraphPad).

[2] = biological target: T1, retinoblastoma binding protein 4 (RBBp4); assay: as above; remark: listed apart in the source
[3] = biological target: T1, retinoblastoma binding protein 4 (RBBp4); assay: fluorescence polarization competition, ratio of IC50s
Description: These three substitutions (Gln4Phe, Pro7Phe, and His9Trp) were incorporated into peptide 46 ([…], named FFW hereof, (SEQ ID NO: 14)).
as §1

[4] = biological target: T1, retinoblastoma binding protein 4 (RBBp4); assay: cell-based or functional assay
[5] = biological target: T1, retinoblastoma binding protein 4 (RBBp4); assay: SPR (Biacore T200), RBBp4 amine-coupled to CM5 chip, peptide as analyte; surface plasmon resonance
Description: SPR studies were performed using a Biacore T200 biosensor (GE Healthsciences). ˜12,000 resonance units (RU) of RBBp4 were immobilised by amine coupling to the carboxymethylated dextran matrix of a Series S CM5 chip (Biacore, GE Healthcare). […] The association time and flow rate were set at 60 s and 30 μl/min respectively.

[6] = biological target: T1, retinoblastoma binding protein 4 (RBBp4); assay: isothermal titration calorimetry, peptide titrated into RBBp4, 25 °C; isothermal titration calorimetry
Description: (§2) ITC was carried out with an Auto-iTC200 instrument from Microcal Inc. at 25° C. […] of RBBp4 in 50 mM Tris and 100 mM NaCl at pH 7.4 was loaded into the ITC cell. Sal14 peptide at […] was auto-loaded into the syringe. The titration was carried out with 18 injections of 2.4 μl, performed over a period of 30 min with stirring at 1000 rpm. The ITC data was analysed using Origin software from Microcal.

[7] = biological target: T1, retinoblastoma binding protein 4 (RBBp4); assay: isothermal titration calorimetry, peptide titrated into RBBp4, 1:1 binding model
Description: as §2

[8] = biological target: T1, retinoblastoma binding protein 4 (RBBp4); assay: fluorescence polarization competition; peptide titrated into RBBp4 with C-labelled FITC-SALL4 WT peptide as the displaced tracer
Description: (§3) FIGS. 3A-3E. […] The difference in the binding free energy (ΔΔGbind) of the alanine mutants (ΔGₘᵤₜₐₙₜ, Ala7 was mutated to glycine) and wild type (ΔG_{wild type}) was calculated (ΔΔGbind=ΔGₘᵤₜₐₙₜ−ΔG_{wild type}). ΔΔGbind was tabulated (left) and plotted in a bar chart (right). […] Mutated residues are highlighted in red. The IC₅₀ of each peptide, including WT, was determined by Fluorescence Polarization (FP). […] Polarization was measured in mP. […] Pep-1 carrier was added to the peptide to facilitate cellular penetration of the peptides.
(§4) In silico analysis using computational alanine scanning was performed on the key residues identified by the crystal contacts.

[9] = biological target: T1, retinoblastoma binding protein 4 (RBBp4); assay: as above; remark: listed apart in the source
Description: as §3, §4

T1 sequence (Q09028 whole entry, the tested form may be a part): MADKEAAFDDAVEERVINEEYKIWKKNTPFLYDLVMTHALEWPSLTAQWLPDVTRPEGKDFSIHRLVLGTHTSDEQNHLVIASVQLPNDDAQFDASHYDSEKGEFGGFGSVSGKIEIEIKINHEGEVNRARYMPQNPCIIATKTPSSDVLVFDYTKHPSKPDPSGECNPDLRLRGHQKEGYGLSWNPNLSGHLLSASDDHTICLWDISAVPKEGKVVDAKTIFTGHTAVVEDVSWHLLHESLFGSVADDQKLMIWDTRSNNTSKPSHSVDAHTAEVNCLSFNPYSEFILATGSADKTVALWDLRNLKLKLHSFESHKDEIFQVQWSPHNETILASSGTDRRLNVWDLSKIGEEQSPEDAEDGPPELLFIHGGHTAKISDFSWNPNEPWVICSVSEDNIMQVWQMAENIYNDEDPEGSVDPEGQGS
T1 sequence (Q09028 whole entry): as the sequence (Q09028 whole entry, the tested form may be a part) above

Binder: Ac-MSRRKQAKP-NH2 (C-terminal truncation of WT) [Peptide 4 (Ac-MSRRKQAKP-NH2)]
IC50 [1]: 1910 nM | IC50 [2]: 1960 nM

Binder: Ac-RRKQAKPQHI-NH2 [Peptide 6 (printed Ac-…-NH2; WT without Met1 and Ser2)]
IC50 [1]: 360 nM

Binder: Ac-RKKQAKPQHI-NH2 (R2 mutation of peptide 6) [Peptide 18 (Ac-RKKQAKPQHI-NH2)]
IC50 [1]: 2300 nM

Binder: Ac-RRKNAKPQHI-NH2 (Q4 mutation of peptide 6) [Peptide 21 (Ac-RRKNAKPQHI-NH2)]
IC50 [1]: 920 nM

Binder: Ac-KRKQAKPQHI-NH2 (R1 mutation of peptide 6) [Peptide 17 (Ac-KRKQAKPQHI-NH2)]
IC50 [1]: 3800 nM

Binder: Ac-RRKQAKPQYI-NH2 [Peptide 40 (Ac-RRKQAKPQYI-NH2)]
IC50 [1]: 2850 nM

Binder: Ac-RRKQAKVQHI-NH2 (P7 mutation of peptide 6) [Peptide 32 (Ac-RRKQAKVQHI-NH2)]
IC50 [1]: 5800 nM

Binder: Ac-RRKEAKPQHI-NH2 (Q4 mutation of peptide 6) [Peptide 20 (Ac-RRKEAKPQHI-NH2)]
IC50 [1]: 3490 nM

Binder: Ac-RRKQAVPQHI-NH2 [Peptide 27 (Ac-RRKQAVPQHI-NH2)]
IC50 [1]: 910 nM

Binder: Ac-RRKQAKLQHI-NH2 (P7 mutation of peptide 6) [Peptide 33 (Ac-RRKQAKLQHI-NH2)]
IC50 [1]: 4400 nM

Binder: Ac-RRKFAKPQHI-NH2 [Peptide 24 (Ac-RRKFAKPQHI-NH2)]
IC50 [2]: 50 nM | fold enhancement in binding affinity over peptide 6 [3]: 7 fold

B1: Peptide 31 (Ac-RRKQAKpQHI-NH2) (peptide)
peptide: Ac-RRKQAK[code p]QHI-NH2
modifications: not fully specified; printed as Ac-RRKQAKpQHI-NH2
notes: P7 mutation of peptide 6; position 7 printed in lower case
IC50 [1]: 6600 nM

B2: Peptide 1 (Ac-MSRRKQAKPQHI-NH2) (peptide)
peptide: Ac-MSRRKQAKPQHI-NH2
notes: also called WT; original 12-residue WT peptide
IC50 [1]: 1040 nM | IC50 [2]: 1300 nM

B3: WT SALL4 peptide (1-12 aa), MSRRKQAKPQHI (peptide)
peptide: MSRRKQAKPQHI
notes: As used in ITC, SPR, crystal structure and the alanine-scan FP assay; also called SALL4 WT; 12-aa SALL4 peptide
PTEN expression by Q-PCR in SNU398 cells treated with peptide [4]: 3 fold | IC50 [2]: 1000 nM | Kd [5]: 1500 nM | koff [5]: 0.026 s⁻¹ | kon [5]: 16800 M⁻¹ s⁻¹ | Kd [6]: 1040 nM | Ka [7]: 960000 M⁻¹

B4: mut K5A,Q6A (peptide)
peptide: MSRRAAAKPQHI
notes: One of the double mutants with the loss of only one key residue (group m57); also called SALL4 (1-12) peptide, double mutant K5A-Q6A
IC50 [8]: 4400 nM | IC50 [9]: 4400 nM

Binder: MSARKQAKPQHI [SALL4 (1-12) peptide bearing the R3A mutation]
IC50 [2]: 3800 nM | IC50 [8]: 4500 nM | IC50 [9]: 4500 nM

Binder: MSRAKQAKPQHI [SALL4 (1-12) peptide bearing the R4A mutation]
IC50 [2]: 8900 nM

B5: mut R3A,Q6A (peptide)
peptide: MSARKAAKPQHI
notes: One of the double mutants with the loss of only one key residue (group m57); also called SALL4 (1-12) peptide, double mutant R3A-Q6A
IC50 [8]: 4100 nM | IC50 [9]: 4100 nM

Binder: MSRRKAAKPQHI [SALL4 (1-12) peptide bearing the Q6A mutation]
IC50 [2]: 1300 nM

B6: mut R4A,Q6A (peptide)
peptide: MSRAKAAKPQHI
notes: One of the double mutants with the loss of only one key residue (group m57); also called SALL4 (1-12) peptide, double mutant R4A-Q6A
IC50 [8]: 4700 nM | IC50 [9]: 4700 nM

Binder: MSRRAQAKPQHI [SALL4 (1-12) peptide bearing the K5A mutation]
IC50 [2]: 7000 nM

Binder: Ac-MSRRKQAKPQH-NH2 (C-terminal truncation of WT) [Peptide 2 (Ac-MSRRKQAKPQH-NH2)]
IC50 [1]: 1290 nM | IC50 [2]: 1400 nM

Results, then the binder that gave them:

IC50 [1]: 600 nM
Binder: Ac-SRRKQAKPQHI-NH2 (N-terminal truncation of WT) [Peptide 5 (Ac-SRRKQAKPQHI-NH2)]

IC50 [1]: 310 nM
Binder: Ac-RRKQALPQHI-NH2 [Peptide 28 (Ac-RRKQALPQHI-NH2)]

IC50 [1]: 460 nM
Binder: Ac-RRKQAKPQHA-NH2 [Peptide 16 (Ac-RRKQAKPQHA-NH2)]

IC50 [1]: 340 nM
Binder: Ac-RRKQAKPQFI-NH2 [Peptide 39 (Ac-RRKQAKPQFI-NH2)]

IC50 [1]: 590 nM
Binder: Ac-RRKQAKPQHL-NH2 (To be rechecked) [Peptide 44 (printed Ac-RRKCIAKPOHL-NH2)]

IC50 [1]: 270 nM
Binder: Ac-RRKQAKAQHI-NH2 (Ala scan of peptide 6) [Peptide 13 (Ac-RRKQAKAQHI-NH2)]

IC50 [1]: 160 nM
Binder: Ac-RRKQAAPQHI-NH2 [Peptide 12 (Ac-RRKQAAPQHI-NH2)]

IC50 [1]: 410 nM
Binder: Ac-RRKVAKPQHI-NH2 (Q4 mutation of peptide 6) [Peptide 22 (Ac-RRKVAKPQHI-NH2)]

IC50 [1]: 730 nM
Binder: Ac-RRKQAKPQAI-NH2 [Peptide 15 (Ac-RRKQAKPQAI-NH2)]

IC50 [1]: 570 nM
Binder: Ac-RRKQAKPEHI-NH2 [Peptide 35 (Ac-RRKQAKPEHI-NH2)]

IC50 [1]: 170 nM
Binder: Ac-RRKQAKFQHI-NH2 [Peptide 34 (Ac-RRKQAKFQHI-NH2)]

IC50 [1]: 380 nM
Binder: Ac-RRKQKKPQHI-NH2 [Peptide 25 (Ac-RRKQKKPQHI-NH2)]

IC50 [1]: 460 nM
Binder: Ac-RRKQRKPQHI-NH2 [Peptide 26 (Ac-RRKQRKPQHI-NH2)]

IC50 [1]: 480 nM
Binder: Ac-RRKQAKPQVI-NH2 [Peptide 42 (Ac-RRKQAKPQVI-NH2)]

IC50 [1]: 270 nM
Binder: Ac-RRKLAKPQHI-NH2 (Q4 mutation of peptide 6) [Peptide 23 (Ac-RRKLAKPQHI-NH2)]

IC50 [1]: 120 nM
Binder: Ac-RRKQAKPAHI-NH2 [Peptide 14 (Ac-RRKQAKPAHI-NH2)]

IC50 [1]: 190 nM
Binder: Ac-RRKAAKPQHI-NH2 [Peptide 11 (Ac-RRKAAKPQHI-NH2)]

IC50 [1]: 120 nM | fold improvement of binding affinity compared with peptide 6 [3]: 3 fold
Binder: Ac-RRKQAKPQWI-NH2 [Peptide 41 (Ac-RRKQAKPQWI-NH2)]

IC50 [1]: 330 nM
Binder: Ac-RRKQARPQHI-NH2 [Peptide 30 (Ac-RRKQARPQHI-NH2)]

IC50 [1]: 350 nM
Binder: Ac-RRKQAKPVHI-NH2 [Peptide 37 (Ac-RRKQAKPVHI-NH2)]

IC50 [1]: 530 nM
Binder: Ac-RRKQAFPQHI-NH2 [Peptide 29 (Ac-RRKQAFPQHI-NH2)]

IC50 [1]: 790 nM
Binder: Ac-RRKQAKPNHI-NH2 [Peptide 36 (Ac-RRKQAKPNHI-NH2)]

IC50 [1]: 460 nM
Binder: Ac-RRKQAKPLHI-NH2 [Peptide 38 (Ac-RRKQAKPLHI-NH2)]

IC50 [1]: 630 nM
Binder: Ac-RRRQAKPQHI-NH2 (K3 mutation of peptide 6) [Peptide 19 (Ac-RRRQAKPQHI-NH2)]

IC50 [1]: 800 nM
Binder: Ac-MSRRKQAKPQ-NH2 (C-terminal truncation of WT) [Peptide 3 (Ac-MSRRKQAKPQ-NH2)]

IC50 [1]: 23 nM | fold increase in affinity compared with the 12-residue WT peptide [3]: > 56 fold
B7: Peptide 46 (Ac-RRKFAKFQWI-NH2), FFW (peptide)
peptide: Ac-RRKFAKFQWI-NH2
notes: Gln4Phe, Pro7Phe and His9Trp of peptide 6; also called FFW peptide
